Experimental findings from the Human Domainome abundance scans (Beltran et al. 2025) are described below.

To fix the notation:
B1: Peroxisome proliferator-activated receptor delta, residues 71 to 145; numbered along this chain, Q03181 (parent)
chain: NMECRVCGDKASGFHYGVHACEGCKGFFRRTIRMKLEYEKCERSCKIQKKNRNKCQYCRFQKCLALGMSHNAIRF

± gives the uncertainty stated by the source.

This data set covers variants of B1. Kind of data set: abundance fitness (aPCA) (normalised: wild type 0, dead -1); higher = more abundant; growth selection in yeast, the domain comes from the species named. The conditions noted are these: Homo sapiens.
Regarding V6T, the abundance fitness is -1.18 ± 0.19.

Turning to V6Y, the abundance fitness was -0.748 ± 0.17.

With T31W, the abundance fitness is -0.588 ± 0.089.

Turning to T31V, the abundance fitness is -0.394 ± 0.063.

As to T31N, the abundance fitness is -0.967 ± 0.28.

For the variant T31L, the abundance fitness is -0.985 ± 0.14.

On to T31D, for which the abundance fitness is -0.663 ± 0.16.

For T31S, the abundance fitness was -0.043 ± 0.041.

For the variant R29D, the abundance fitness is 0.131 ± 0.056.

Turning to R29N, the abundance fitness amounted to 0.085 ± 0.066.

In the case of R29Q, the abundance fitness was determined as 0.168 ± 0.045.

Regarding R29P, the abundance fitness is -0.901 ± 0.13.

Regarding R29W, the abundance fitness is 0.164 ± 0.045.

Take R29V: the abundance fitness was 0.105 ± 0.039.

As for R30Y, the abundance fitness is -0.056 ± 0.087.

On to R30G, for which the abundance fitness was -0.335 ± 0.043.

Turning to C58Y, the abundance fitness was -0.432 ± 0.16.

C58T: the abundance fitness was -0.957 ± 0.15.

Regarding C58I, the abundance fitness is -0.82 ± 0.31.

Turning to C58E, the abundance fitness was -0.925 ± 0.12.

In the case of G17D, the abundance fitness was -0.15 ± 0.058.

With E39R, the abundance fitness is -0.224 ± 0.032.

For the variant E39P, the abundance fitness was 0.072 ± 0.04.

With E39D, the abundance fitness is -0.063 ± 0.055.

Take N71P: the abundance fitness came to 0.095 ± 0.047.

Consider N71I, for which the abundance fitness is -0.361 ± 0.14.

For the variant N71C, the abundance fitness was -0.246 ± 0.089.

On to N71M, for which the abundance fitness is -0.394 ± 0.081.

Take N71D: the abundance fitness turned out to be 0.103 ± 0.064.

Take K40E: the abundance fitness was -0.113 ± 0.046.

Consider K40H, for which the abundance fitness was found to be 0.08 ± 0.096.

Consider K40I, for which the abundance fitness is 0.061 ± 0.089.

Consider K40D, for which the abundance fitness was -0.408 ± 0.1.

Consider K40Y, for which the abundance fitness is -0.088 ± 0.081.

For the variant K40P, the abundance fitness was -0.117 ± 0.056.

As to K40S, the abundance fitness was -0.255 ± 0.051.

Consider K40Q, for which the abundance fitness was -0.05 ± 0.05.

A72F: the abundance fitness is -0.27 ± 0.1.

Consider A72Q, for which the abundance fitness worked out at 0.008 ± 0.058.

With A72M, the abundance fitness is 0.019 ± 0.059.

On to A72L, for which the abundance fitness was -0.144 ± 0.041.

A72N: the abundance fitness was -0.092 ± 0.084.

For C7K, the abundance fitness is -0.63 ± 0.13.

Take C7A: the abundance fitness is -0.66 ± 0.11.

Consider C7Y, for which the abundance fitness is -0.673 ± 0.14.

Take C7I: the abundance fitness was -0.877 ± 0.22.

On to C7H, for which the abundance fitness is -0.21 ± 0.14.

In the case of G67E, the abundance fitness was -0.525 ± 0.091.

For the variant G67W, the abundance fitness was -0.666 ± 0.1.

With S12F, the abundance fitness was -0.115 ± 0.086.

Turning to S12I, the abundance fitness was -0.121 ± 0.11.

As to S12T, the abundance fitness is -0.06 ± 0.048.

G23T: the abundance fitness was -0.203 ± 0.055.

Turning to G23R, the abundance fitness was -0.179 ± 0.036.

On to G23Y, for which the abundance fitness came to 0.021 ± 0.072.

In the case of G23K, the abundance fitness was -0.034 ± 0.062.

For G26R, the abundance fitness is -0.099 ± 0.036.

With G26V, the abundance fitness was -0.004 ± 0.039.

Consider G26I, for which the abundance fitness was found to be 0.025 ± 0.099.

With G26H, the abundance fitness came to 0.221 ± 0.066.

As for E42C, the abundance fitness is -0.394 ± 0.077.

For E42W, the abundance fitness is -0.295 ± 0.049.

With E42Y, the abundance fitness was -0.093 ± 0.089.

Turning to E42A, the abundance fitness is -0.179 ± 0.037.

Take E42L: the abundance fitness was -0.195 ± 0.04.

E42V: the abundance fitness was -0.074 ± 0.035.

For the variant E42S, the abundance fitness is -0.117 ± 0.04.

For the variant E42F, the abundance fitness was -0.139 ± 0.089.

Turning to E42H, the abundance fitness was -0.195 ± 0.08.

For the variant E42D, the abundance fitness is -0.16 ± 0.073.

As for Y57A, the abundance fitness was -0.355 ± 0.064.

On to Y57L, for which the abundance fitness is -0.765 ± 0.12.

For the variant Y57V, the abundance fitness is -0.675 ± 0.087.

Take Y57D: the abundance fitness was -0.335 ± 0.11.

With Y57G, the abundance fitness is -0.746 ± 0.085.

Take R52M: the abundance fitness is -0.078 ± 0.056.

For R52T, the abundance fitness was -0.012 ± 0.047.

As to R52F, the abundance fitness is -0.155 ± 0.12.

As to R52D, the abundance fitness was determined as 0.075 ± 0.065.

Turning to R52L, the abundance fitness was -0.087 ± 0.042.

For R52H, the abundance fitness was -0.307 ± 0.11.

In the case of R52C, the abundance fitness is -0.241 ± 0.076.

Consider E3C, for which the abundance fitness is -0.278 ± 0.076.

For the variant E3V, the abundance fitness is -0.178 ± 0.045.

Take E3K: the abundance fitness was -0.089 ± 0.057.

Turning to E3T, the abundance fitness is -0.102 ± 0.047.

Consider C41Y, for which the abundance fitness was -0.816 ± 0.34.

Regarding C41P, the abundance fitness is -0.093 ± 0.16.

As to C41W, the abundance fitness is -0.774 ± 0.22.

E37A: the abundance fitness is -0.13 ± 0.044.

Take E37H: the abundance fitness was -0.067 ± 0.083.

On to E37T, for which the abundance fitness was -0.121 ± 0.048.

In the case of E37I, the abundance fitness was -0.069 ± 0.089.

E37C: the abundance fitness was 0.011 ± 0.062.

For I73W, the abundance fitness was -0.152 ± 0.049.

Turning to I73T, the abundance fitness turned out to be 0.184 ± 0.041.

With I73E, the abundance fitness is 0.288 ± 0.043.

Take Q61P: the abundance fitness was -0.666 ± 0.12.

Take Q61W: the abundance fitness was -0.699 ± 0.094.

On to Q61L, for which the abundance fitness is -0.439 ± 0.053.

With K46P, the abundance fitness turned out to be 0.037 ± 0.044.

For the variant K46N, the abundance fitness is 0.029 ± 0.067.

With K46C, the abundance fitness was -0.046 ± 0.052.

For the variant K46I, the abundance fitness was found to be 0.12 ± 0.068.

As for K46M, the abundance fitness worked out at 0.066 ± 0.047.

In the case of G8V, the abundance fitness is -0.899 ± 0.093.

For G8Q, the abundance fitness is -0.253 ± 0.064.

For the variant G8M, the abundance fitness is -0.782 ± 0.12.

As for G8E, the abundance fitness is -0.32 ± 0.061.

Regarding L66V, the abundance fitness stood at 0.113 ± 0.035.

As to L66H, the abundance fitness was -0.436 ± 0.13.

Take L66I: the abundance fitness was 0.106 ± 0.059.

For L66T, the abundance fitness was 0.086 ± 0.049.

L66R: the abundance fitness is -0.315 ± 0.046.

With L66F, the abundance fitness was -0.438 ± 0.11.

Regarding R59H, the abundance fitness was -0.005 ± 0.078.

With R59Y, the abundance fitness was 0.107 ± 0.066.

For the variant R59S, the abundance fitness is -0.928 ± 0.13.

For the variant R59E, the abundance fitness was -0.933 ± 0.16.

R59A: the abundance fitness was -0.459 ± 0.062.

Consider R59P, for which the abundance fitness was -0.903 ± 0.16.

Turning to V18Q, the abundance fitness is -0.39 ± 0.082.

Take V18F: the abundance fitness was -0.527 ± 0.16.

Regarding V18L, the abundance fitness was -0.258 ± 0.044.

Regarding V18P, the abundance fitness is -0.492 ± 0.075.

As to V18R, the abundance fitness was -0.671 ± 0.067.

For K10W, the abundance fitness is -0.206 ± 0.053.

With K10P, the abundance fitness was -0.268 ± 0.057.

Turning to I32L, the abundance fitness was -0.095 ± 0.043.

I32G: the abundance fitness is -0.677 ± 0.078.

For I32N, the abundance fitness was -0.617 ± 0.2.

On to I32R, for which the abundance fitness is -0.514 ± 0.068.

In the case of K25T, the abundance fitness is 0.094 ± 0.041.

Regarding K25L, the abundance fitness worked out at 0.112 ± 0.033.

As to K25R, the abundance fitness was -0.003 ± 0.033.

For K25C, the abundance fitness was -0.014 ± 0.057.

K25Q: the abundance fitness is -0.036 ± 0.049.

In the case of K25D, the abundance fitness is -0.048 ± 0.056.

As for L64R, the abundance fitness was -0.391 ± 0.041.

Take L64V: the abundance fitness is -0.022 ± 0.038.

On to L64Q, for which the abundance fitness was -0.162 ± 0.056.

For the variant L64I, the abundance fitness is -0.037 ± 0.07.

Turning to L64N, the abundance fitness is -0.906 ± 0.21.

In the case of H19A, the abundance fitness came out at 0.11 ± 0.037.

For H19W, the abundance fitness is -0.001 ± 0.044.

Consider H19G, for which the abundance fitness is -0.205 ± 0.041.

For the variant M68L, the abundance fitness was -0.725 ± 0.089.

For the variant M68S, the abundance fitness was -0.746 ± 0.1.

Take M68D: the abundance fitness is -0.696 ± 0.16.

For the variant M68K, the abundance fitness is -0.769 ± 0.14.

As for H70M, the abundance fitness turned out to be 0.09 ± 0.08.

For the variant H70C, the abundance fitness was -0.206 ± 0.12.

On to H70W, for which the abundance fitness was -0.177 ± 0.072.

Take H70I: the abundance fitness was 0.198 ± 0.09.

Take H70E: the abundance fitness turned out to be 0.172 ± 0.091.

Consider A65Q, for which the abundance fitness was -0.001 ± 0.052.

Consider A65F, for which the abundance fitness was -0.19 ± 0.073.

On to A65Y, for which the abundance fitness is -0.301 ± 0.11.

Take K50I: the abundance fitness came to 0.132 ± 0.095.

As to K50C, the abundance fitness is -0.164 ± 0.066.

With R43C, the abundance fitness is -0.138 ± 0.076.

Turning to R43M, the abundance fitness is -0.043 ± 0.052.

With R43N, the abundance fitness is 0.223 ± 0.069.

For the variant A11F, the abundance fitness was -0.228 ± 0.085.

In the case of A11Q, the abundance fitness was -0.546 ± 0.096.

As to A11C, the abundance fitness was -0.367 ± 0.075.

Regarding A11T, the abundance fitness was -0.147 ± 0.052.
